According to PMC9582194, “The effect of helix-inducing constraints and downsizing upon a transcription block survival-derived functional cJun antagonist” (Cell Reports. Physical Science, 2022):
Positions of bridges follow the written chain, without caps; N, C: chain ends.

Columns and labels:
[1] = target: T1, cJun (60 amino acid construct encompassing the entire bZIP domain) (UniProt P05412 252-315); experiment: cell-based or functional assay
[2] = target: T1, cJun (60 amino acid construct …); experiment: CD thermal denaturation; peptide (5 μM) with cJun (5 μM); ellipticity at 222 nm, 1°C to 90°C; 20 mM potassium phosphate, 150 mM potassium fluoride, 2 mM TCEP, pH 7.4; two-state fit gives the Tm of the peptide-cJun heterodimer; duplicate experiments; settings: both partners purified

T1 sequence (P05412 252-315): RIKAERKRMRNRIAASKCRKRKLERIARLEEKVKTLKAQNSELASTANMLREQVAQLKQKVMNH

Binder | IC50 CD: peptide added to pre-incubated cJun (20 μM) and TRE DNA (5 μM); blocks cJun/TRE DNA binding [1] [µM] | Tm of the peptide-cJun heterodimer [2] [°C]
Ac-EAEELVVEEDVLEEEIEQLEEKNKALKDEIEDLY-NH2 (lactam 24-28; SMILES CC[C@H](C)[C@H](NC(=O)[C@H](CCC(=O)O)NC(=O)[C@@H]1CC(=O)NCCCC[C@H](NC(=O)[C@H](CC(N)=O)NC(=O)[C@H](CCCCN)NC(=O)[C@H](CCC(=O)O)NC(=O)[C@H](CCC(=O)O)NC(=O)[C@H](CC(C)C)NC(=O)[C@H](CCC(N)=O)NC(=O)[C@H](CCC(=O)O)NC(=O)[C@@H](NC(=O)[C@H](CCC(=O)O)NC(=O)[C@H](CCC(=O)O)NC(=O)[C@H](CCC(=O)O)NC(=O)[C@H](CC(C)C)NC(=O)[C@@H](NC(=O)[C@H](CC(=O)O)NC(=O)[C@H](CCC(=O)O)NC(=O)[C@H](CCC(=O)O)NC(=O)[C@@H](NC(=O)[C@@H](NC(=O)[C@H](CC(C)C)NC(=O)[C@H](CCC(=O)O)NC(=O)[C@H](CCC(=O)O)NC(=O)[C@H](C)NC(=O)[C@H](CCC(=O)O)NC(C)=O)C(C)C)C(C)C)C(C)C)[C@@H](C)CC)C(=O)N[C@@H](C)C(=O)N[C@@H](CC(C)C)C(=O)N[C@@H](CCCCN)C(=O)N1)C(=O)N[C@@H](CCC(=O)O)C(=O)N[C@@H](CC(=O)O)C(=O)N[C@@H](CC(C)C)C(=O)N[C@@H](Cc1ccc(O)cc1)C(N)=O, cyclized form of the pair HW14/HW15; NΔ20 CΔ10; source: synthetic peptide (Fmoc SPPS, on-resin lactamization, RP-HPLC purified)) [HW15] | 118 | 52.5
Ac-LVVEEDVLEEEIEQLEEKNKALKDEIEDLQKQLEKLY-NH2 (linear form of the pair HW10/HW11; NΔ24 CΔ3 with point mutations for the bridging K and D; source: synthetic peptide (Fmoc SPPS, split batch, RP-HPLC purified)) [HW10] | 83.9 | 64.3
Ac-EAEELVVEEDVLEEEIEQLEEKNKALKDEIEDLQKQY-NH2 (linear form of the pair HW26/HW27; NΔ20 CΔ7; source: synthetic peptide (Fmoc SPPS, RP-HPLC purified)) [HW26] | 121 | 56.2
Ac-KEAEDLVVEEDVLEEEIEQLEERNYALRKEIKDLQDQ-NH2 (linear form of the pair HW18/HW19; NΔ19 CΔ7; source: synthetic peptide (Fmoc SPPS, RP-HPLC purified)) [HW18] | 115 | 56.5
Ac-LVVEEDVLEEEIEQLEERNYALRKEIEDLQKQLEDL-NH2 (linear form of the pair HW12/HW13; NΔ24 CΔ3; source: synthetic peptide (Fmoc SPPS, split batch, RP-HPLC purified)) [HW12] | 94.6 | 62.1
Ac-EAEELVVEEDVLEEEIEQLEERNYALRKEIEDLQ-NH2 (linear form of the pair HW16/HW17; NΔ20 CΔ9; source: synthetic peptide (Fmoc SPPS, RP-HPLC purified)) [HW16] | 725 | 53.8
Ac-LVVEEDVLEEEIEQLEERNYALRKEIEDLQKQLEDL-NH2 (lactam 31-35, cyclized form of the pair HW12/HW13; NΔ24 CΔ3; source: synthetic peptide (Fmoc SPPS, on-resin lactamization, RP-HPLC purified)) [HW13] | 69 | 68.3
Ac-LVVEEDVLEEEIEQLEEKNKALKDEIEDLQKQLEKLY-NH2 (lactam 20-24; SMILES CC[C@H](C)[C@H](NC(=O)[C@H](CCC(=O)O)NC(=O)[C@@H]1CC(=O)NCCCC[C@H](NC(=O)[C@H](CC(N)=O)NC(=O)[C@H](CCCCN)NC(=O)[C@H](CCC(=O)O)NC(=O)[C@H](CCC(=O)O)NC(=O)[C@H](CC(C)C)NC(=O)[C@H](CCC(N)=O)NC(=O)[C@H](CCC(=O)O)NC(=O)[C@@H](NC(=O)[C@H](CCC(=O)O)NC(=O)[C@H](CCC(=O)O)NC(=O)[C@H](CCC(=O)O)NC(=O)[C@H](CC(C)C)NC(=O)[C@@H](NC(=O)[C@H](CC(=O)O)NC(=O)[C@H](CCC(=O)O)NC(=O)[C@H](CCC(=O)O)NC(=O)[C@@H](NC(=O)[C@@H](NC(=O)[C@H](CC(C)C)NC(C)=O)C(C)C)C(C)C)C(C)C)[C@@H](C)CC)C(=O)N[C@@H](C)C(=O)N[C@@H](CC(C)C)C(=O)N[C@@H](CCCCN)C(=O)N1)C(=O)N[C@@H](CCC(=O)O)C(=O)N[C@@H](CC(=O)O)C(=O)N[C@@H](CC(C)C)C(=O)N[C@@H](CCC(N)=O)C(=O)N[C@@H](CCCCN)C(=O)N[C@@H](CCC(N)=O)C(=O)N[C@@H](CC(C)C)C(=O)N[C@@H](CCC(=O)O)C(=O)N[C@@H](CCCCN)C(=O)N[C@@H](CC(C)C)C(=O)N[C@@H](Cc1ccc(O)cc1)C(N)=O, cyclized form of the pair HW10/HW11; NΔ24 CΔ3; source: synthetic peptide (Fmoc SPPS, on-resin lactamization, RP-HPLC purified)) [HW11] | 73.5 | 67.2
Ac-KEAEDLVVEEDVLEEEIEQLEERNYALRKEIKDLQDQ-NH2 (lactam 1-5, cyclized form of the pair HW18/HW19; NΔ19 CΔ7; source: synthetic peptide (Fmoc SPPS, on-resin lactamization, RP-HPLC purified)) [HW19] | 92.5 | 58.5
Ac-LARENEELEKEAEELVVEEDVLEEEIEQLEERNYALRKEIEDLQKQLEKL-NH2 (truncation NΔ10 CΔ3 of HW1; source: synthetic peptide (Fmoc SPPS, RP-HPLC purified)) [HW2] | 16.6 | 68.5
Ac-EAKELVDEEDVLEEEIEQLEERNYALRKEIEDLQKQ-NH2 (linear form of the pair HW20/HW21; NΔ20 CΔ7; source: synthetic peptide (Fmoc SPPS, RP-HPLC purified)) [HW20] | 100 | 57.5
Ac-EAEELVVEEDVLEEEIKQLEDRNYALRKEIEDLQKQ-NH2 (lactam 17-21; SMILES CC[C@H](C)[C@H](NC(=O)[C@H](CCC(=O)O)NC(=O)[C@H](CCCCN)NC(=O)[C@H](CCCNC(=N)N)NC(=O)[C@H](CC(C)C)NC(=O)[C@H](C)NC(=O)[C@H](Cc1ccc(O)cc1)NC(=O)[C@H](CC(N)=O)NC(=O)[C@H](CCCNC(=N)N)NC(=O)[C@@H]1CC(=O)NCCCC[C@H](NC(=O)[C@@H](NC(=O)[C@H](CCC(=O)O)NC(=O)[C@H](CCC(=O)O)NC(=O)[C@H](CCC(=O)O)NC(=O)[C@H](CC(C)C)NC(=O)[C@@H](NC(=O)[C@H](CC(=O)O)NC(=O)[C@H](CCC(=O)O)NC(=O)[C@H](CCC(=O)O)NC(=O)[C@@H](NC(=O)[C@@H](NC(=O)[C@H](CC(C)C)NC(=O)[C@H](CCC(=O)O)NC(=O)[C@H](CCC(=O)O)NC(=O)[C@H](C)NC(=O)[C@H](CCC(=O)O)NC(C)=O)C(C)C)C(C)C)C(C)C)[C@@H](C)CC)C(=O)N[C@@H](CCC(N)=O)C(=O)N[C@@H](CC(C)C)C(=O)N[C@@H](CCC(=O)O)C(=O)N1)C(=O)N[C@@H](CCC(=O)O)C(=O)N[C@@H](CC(=O)O)C(=O)N[C@@H](CC(C)C)C(=O)N[C@@H](CCC(N)=O)C(=O)N[C@@H](CCCCN)C(=O)N[C@@H](CCC(N)=O)C(N)=O, cyclized form of the pair HW24/HW25; NΔ20 CΔ7; source: synthetic peptide (Fmoc SPPS, on-resin lactamization, RP-HPLC purified)) [HW25] | 94.4 | 60.9
Ac-EAEELVVEEDVLEEEIEQLEERNYALRKEIKDLQDQ-NH2 (linear form of the pair HW28/HW29; NΔ20 CΔ7; source: synthetic peptide (Fmoc SPPS, RP-HPLC purified)) [HW28] | 101 | 55.6
Ac-EAKELVDEEDVLEEEIEQLEERNYALRKEIEDLQKQ-NH2 (lactam 3-7; SMILES CC[C@H](C)[C@H](NC(=O)[C@H](CCC(=O)O)NC(=O)[C@H](CCCCN)NC(=O)[C@H](CCCNC(=N)N)NC(=O)[C@H](CC(C)C)NC(=O)[C@H](C)NC(=O)[C@H](Cc1ccc(O)cc1)NC(=O)[C@H](CC(N)=O)NC(=O)[C@H](CCCNC(=N)N)NC(=O)[C@H](CCC(=O)O)NC(=O)[C@H](CCC(=O)O)NC(=O)[C@H](CC(C)C)NC(=O)[C@H](CCC(N)=O)NC(=O)[C@H](CCC(=O)O)NC(=O)[C@@H](NC(=O)[C@H](CCC(=O)O)NC(=O)[C@H](CCC(=O)O)NC(=O)[C@H](CCC(=O)O)NC(=O)[C@H](CC(C)C)NC(=O)[C@@H](NC(=O)[C@H](CC(=O)O)NC(=O)[C@H](CCC(=O)O)NC(=O)[C@H](CCC(=O)O)NC(=O)[C@@H]1CC(=O)NCCCC[C@H](NC(=O)[C@H](C)NC(=O)[C@H](CCC(=O)O)NC(C)=O)C(=O)N[C@@H](CCC(=O)O)C(=O)N[C@@H](CC(C)C)C(=O)N[C@@H](C(C)C)C(=O)N1)C(C)C)[C@@H](C)CC)C(=O)N[C@@H](CCC(=O)O)C(=O)N[C@@H](CC(=O)O)C(=O)N[C@@H](CC(C)C)C(=O)N[C@@H](CCC(N)=O)C(=O)N[C@@H](CCCCN)C(=O)N[C@@H](CCC(N)=O)C(N)=O, cyclized form of the pair HW20/HW21; NΔ20 CΔ7; source: synthetic peptide (Fmoc SPPS, on-resin lactamization, RP-HPLC purified)) [HW21] | 81.1 | 59.4
Ac-EAEELVVEEKVLEDEIEQLEERNYALRKEIEDLQKQ-NH2 (linear form of the pair HW22/HW23; NΔ20 CΔ7; source: synthetic peptide (Fmoc SPPS, RP-HPLC purified)) [HW22] | 114 | 54.9
Ac-EAEELVVEEDVLEEEIKQLEDRNYALRKEIEDLQKQ-NH2 (linear form of the pair HW24/HW25; NΔ20 CΔ7; source: synthetic peptide (Fmoc SPPS, RP-HPLC purified)) [HW24] | 98.9 | 55.5
Ac-EAEELVVEEDVLEEEIEQLEERNYALRKEIEDLQ-NH2 (lactam 28-32, cyclized form of the pair HW16/HW17; NΔ20 CΔ9; source: synthetic peptide (Fmoc SPPS, on-resin lactamization, RP-HPLC purified)) [HW17] | 140 | 57.2
